# Data from IntAct's records for PubMed 26886794.
# Legend:
# ASH2L, Q9UBL3-3 [1] = target: ASH2L, Q9UBL3-3
# ASH2L, Q9UBL3-3 [2] = target: ASH2L, Q9UBL3-3; remark: listed apart in the source
# Sequence of ASH2L, Q9UBL3-3 (Q9UBL3 95-628): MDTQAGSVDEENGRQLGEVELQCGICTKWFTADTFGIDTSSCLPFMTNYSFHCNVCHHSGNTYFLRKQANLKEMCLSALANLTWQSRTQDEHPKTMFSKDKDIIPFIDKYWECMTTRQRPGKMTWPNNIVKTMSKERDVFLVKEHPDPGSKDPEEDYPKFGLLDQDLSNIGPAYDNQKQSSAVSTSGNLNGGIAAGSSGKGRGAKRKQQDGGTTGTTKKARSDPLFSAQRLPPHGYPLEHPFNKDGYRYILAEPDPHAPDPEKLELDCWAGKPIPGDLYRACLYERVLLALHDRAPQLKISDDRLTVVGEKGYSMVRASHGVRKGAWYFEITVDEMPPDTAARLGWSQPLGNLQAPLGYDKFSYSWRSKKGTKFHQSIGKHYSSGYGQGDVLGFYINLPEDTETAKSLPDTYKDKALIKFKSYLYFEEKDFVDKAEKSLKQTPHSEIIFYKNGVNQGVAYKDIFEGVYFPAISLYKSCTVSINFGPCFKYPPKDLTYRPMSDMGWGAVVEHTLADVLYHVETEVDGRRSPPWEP
Substance,"effect of a mutation on the interaction (ASH2L, Q9UBL3-3 [1])","effect of a mutation on the interaction (ASH2L, Q9UBL3-3 [2])"
"Histone-lysine N-methyltransferase 2B (Homo sapiens), Q9UMN6 R2610A",disrupting interaction strength,
"Histone-lysine N-methyltransferase 2C (Homo sapiens), Q8NEZ4 R4806A",,disrupting interaction strength
